{
  "source": "paper PMC6166989",
  "about": "(PLoS Pathogens, 2018)",
  "biological_target": "the molecule itself",
  "experiment": "SEC",
  "data": [
    {"protein": "PV-2C-[change] (poliovirus 2C^ATPase residues 116–329) (domain or fragment) SKHRIEPVCLLVHGSPGTGKSVATNLIARAIAERENTSTYSLPPDPSHFDGYKQQGVVIMDDLNQNPDGADMKLFCQMVSTVEFIPPMASLEEKGILFTSNYVLASTNSSRISPPTVAHSDALARRFAFDMDIQVMNEYSRDGKLNMAMATEMCKNCHQPANFKRCCPLVCGKAIQLMDKSSRVRYSIDQITTMIINERNRRSNIGNCMEALFQ", "values": [
      {"measurement": "stoichiometry N", "result": 4}
    ]}
  ]
}
